# Data from US20050214207A1 (published 2005).
# Several values for one entry are separate records, joined by “and”; a condition that tells them apart may be missing. Equal entries are not always repeated.
# Columns and labels:
# [1] = biological target: T1, TR7-Fc fusion protein (Ala-Asp-Pro fused to E52-G184 of TR7, SEQ ID NO:3, fused to the Fc region) (human, UniProt O14763 52-184); experiment: competition ELISA: inhibition of biotinylated TRAIL binding to TR7-Fc captured on anti-human Fc
# T1 construct: Expressed in baculovirus with the GP signal peptide; it is read as TR7; also called TR7-Fc receptor; TRAILR2; not shown: Fc region
# Protocol: Goat anti-human Fc is diluted to 0.1 micrograms/ml in coating buffer. An Immulon 4 microplate is coated with 100 microliters per well of the Goat anti-human Fc solution and incubated overnight at 4° C. The coating solution is decanted from the plate, and blocking solution is dispensed at 200 microliters per well. The plate is incubated at room temperature for 1 hour. After the 1 hour incubation period, the blocking solution is decanted from the plate and 1 microgram/mL of TR7-Fc is dispensed at 100 microliters/well and incubated for 2 hours at room temperature. After the incubation, the plate is washed five times manually using a Wheaton manifold.
# Antibodies corresponding to scFvs of the present invention are (previously) prepared in a low binding dilution plate using diluent. The antibodies are prepared in duplicate and are diluted from the stock concentration with 2.5 fold dilutions for the 7 subsequent wells. If a purified form of the antibody is available, the starting concentration is 5 micrograms/mL. The positive control (TR7-Fc) is diluted from 5 micrograms/mL. 100 microliters is transferred into the ELISA plate and pre-incubated for 30 minutes at room temperature. […]
# After the one-hour incubation, the plate is decanted and washed with PBST five times and blotted. […] The plate is immediately read at 450 nm using the spectrometer from Molecular Devices.
# [2] = biological target: T1, TR7-Fc fusion protein (Ala-Asp-Pro …); experiment: SPR (BIAcore 2000), TR7-Fc amine-coupled to CM5 chip, antibody as analyte, separate fitting of the dissociation phase
# Protocol: (§1) TR7-Fc and TR2-Fc were immobilized on individual flow cells of a BIAcore CM5 sensor chip (BIAcore, Cat# BR-1000-14). Amine coupling (BIAcore, Cat# BR-1000-50) was used to covalently bind each receptor to the dextran matrix on the sensor chip. The optimal pH for this coupling was analyzed using preconcentration experiments ranging from pH 4-7 and was determined to be pH 4.0 based on the slope of the binding. The actual coupling was performed using the manual injection mode. A target level of 200 relative units (RU) was set as the goal for both flow cells. A response of 1000 RU correlates to a change in surface concentration of about 1 ng/mm² for proteins. The molecular weight of the TR7 and TR2 fusion proteins was nearly identical. The concentration of both receptors for immobilization was 5 μg/ml in 10 mM acetate, pH 4.0 (BIAcore, Cat# BR-1003-49). The entire experiment was performed at a flow rate of 5 μL/min. Contact time for the N-ethyl-N′-(3-dimethylaminoprolpyl)carbodiimide hydrochloride/Ethanolamine hydrochloride-NaOH, pH 8.5 (EDC/NHS) injection was 3 minutes. […]
# (§2) Analysis of CM005G08 kinetics was performed using the BIAcore 2000 instrument with the 2000 control software, version 3.1.1. […] The off rate of CM005G08 was determined by washing the complex in the presence of HBS-EP buffer for 10 minutes. […]
# (§3) The binding data were analyzed using the BIAevaluation software, version 3.1. […]
# [3] = biological target: T1, TR7-Fc fusion protein (Ala-Asp-Pro …); experiment: SPR (BIAcore 2000), TR7-Fc amine-coupled to CM5 chip, antibody as analyte, 1:1 Langmuir model, double-reference subtraction, mean±STD of three experiments
# Protocol: as §1, §2, §3
binder,measurement,setting,value
"CM005G08 whole IgG1 antibody comprising the VH and VL domains of the CM005G08 scFv (antibody, V domains shown, Two lots were tested; also called CM05G08; IgG1 format of CM005G08) VH: EVQLVQSGGGVERPGGSLRLSCAASGFTFDDYGMSWVRQAPGKGLEWVSGINWNGGSTGYADSVKGRVTISRDNAKNSLYLQMNSLRAEDTAVYYCAKILGAGRGWYFDLWGKGTTVTVSS VL: SSELTQDPAVSVALGQTVRITCQGDSLRSYYASWYQQKPGQAPVLVIYGKNNRPSGIPDRFSGSSSGNTASLTITGAQAEDEADYYCNSRDSSGNHVVFGGGTKLTVLG",IC50,[1],5.3 nM and 6.89 nM
same,koff,[2],0.00266 s⁻¹ and 0.00268 s⁻¹
same,Kd,[3],0.25 nM and 0.33 nM
